Test results from patent publication US20050239072, “Device and methods for concentrating prion protein isoforms” (published 2005).

Key:
[1] = target: T1, human recombinant prion protein hrPrP (PrP23-231) (Homo sapiens, UniProt P04156 P04156:23-231); assay: FP filter; conditions: tags: E. coli GST fusion, GST removed by thrombin cleavage; label: 32P internal
[2] = target: T1, human recombinant prion protein hrPrP …; assay: pulldown; conditions: tags: E. coli GST fusion, GST removed by thrombin cleavage; label: none; hybridized to oligo-dT-cellulose
[3] = target: T1, human recombinant prion protein hrPrP …; assay: FP filter; no tRNA; 250 mM NaCl, 2 mM MgCl2, 37 C; conditions: tags: E. coli GST fusion, GST removed by thrombin cleavage
[4] = target: human recombinant PrP90-231 (lacks N-terminal 23-90) (Homo sapiens, UniProt P04156 P04156:90-231)

B1: MNV:AP1 (ssRNA)
RNA: GGGUUCAUAGCCUAUUCGGCUUCGCGCAUGGGAAUUUGAGGGACGAUGGGGAAGUGGGAGCGCGUUUUAAAGGACCUUUUUCCCUCGCGUAGCUAGCUACGCGAGGUGACCCCCCGAAGGGGGGUGCCCC
B1 gave a Kd [1] of 3.8 nM.

B2: RQAAA (RQ11+12 with 3' poly-A15) (ssRNA)
RNA: GGGGUUUCCAACCGGAAUUUGAGGGAUGCCUAGGCAUCCCCCGUGCGUCCCUUUACGAGGGAUUGUCGACUCUAGUCGACGUCUGGGCGAAAAAUGUACGAGAGGACCUUUUCGGUACAGACGGUACCUGAGGGAUGCCUAGGCAUCCCCGCGCGCCGGUUUCGGACCUCCAGUGCGUGUUACCGCACUGUCGACCCAAAAAAAAAAAAAAA
B2: binds [2].

B3: RQ11+12 (ssRNA)
RNA: GGGGUUUCCAACCGGAAUUUGAGGGAUGCCUAGGCAUCCCCCGUGCGUCCCUUUACGAGGGAUUGUCGACUCUAGUCGACGUCUGGGCGAAAAAUGUACGAGAGGACCUUUUCGGUACAGACGGUACCUGAGGGAUGCCUAGGCAUCCCCGCGCGCCGGUUUCGGACCUCCAGUGCGUGUUACCGCACUGUCGACCC
With B3 the Kd ([3]; label: 32P internal (alpha-32P CTP)) was 26 nM and the binding result [4] was “no binding”.

B4: RQT157 (ssRNA)
RNA: GGGGUUUCGAACCGGAAUUUGAGGGAUGCCUAGGCAUCCCCCGUGCGUCCCUUUACGAGGGAUUGUCGACUCUAGAGGAUCCGGUACCUGAGGGAUGCCUAGGCAUCCCCGCGCGCCGGUUUCGGACCUCCAGUGCGUGUUACCGCACUGUCGACCC
With B4 the Kd ([3]; label: 32P internal) was 56 nM.
